# Results reported in the RNAGym collection of RNA variant scans (doi:10.1073/pnas.2313332121).
# Variants at the floor of the assay were thinned out.
# B1: TPR 5TU (parent)
# chain: GGAUCUUCUCGAUCUAACAAAAAAGACAAAUCUGCCACAAAGCUUGAGAGCAUCUUCGGAUGCAGAGGCGGCAGCCUUCGGUGGCGCGAUAGCGCCAACGUUCUCAACUAUGACACGCAAAACGCGUGCUCCGUUGAAUGGAGUUUAUCAUG
# Variants of: B1
# Assay: polymerase ribozyme fitness, log enrichment relative to wild type (log ratio); higher = more active; in vitro selection for triplet polymerase activity
# Outline: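 After PCR construction and transcription, each subunit's mutant library from a heterodimeric triplet polymerase ribozyme was annealed with a biotinylated primer, the partner subunit and triplets. Incubation was frozen, at −7 °C, and extended constructs were gel-excised, bound to streptavidin beads and amplified by RT-PCR, in one selection round done in triplicate. Fitness is the logarithm of a genotype's enrichment divided by that of the wild type, from inverse-variance-weighted replicate averages of Illumina-sequenced inputs and outputs. The base of the logarithm is 2, and genotypes needed ≥10 input reads and ≥1 read per output.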
row,Variant,polymerase ribozyme fitness (log ratio)
1,U6A C69U,-1.1
2,U4A G84A C99U U109G A120C G152C,-3.96
3,U4C U15C C87A A121C,≤ -4.2
4,C5U G62C G88C,≤ -4.2
5,C5U C99U,0.209
6,U4A A16U A29U U55G C72G U127A,≤ -4.2
7,A3U U15A U82C G86A A91G,-3.4
8,C5U C18G G59A C93U C132U,-2.33
9,U6A A17G G58C A60C C69U C118U U146C,-4.14
10,C5G C63A,0.429
11,A3U U56A G83A C85U A91G C95U C99A U144G,≤ -4.2
12,U6A A12G A16U C43U G83A,≤ -4.2
13,C5U U6C C10U G83C,-2.89
14,C5G U55G A73U,-3.69
15,C5A U55A G58C G68U G81A A91U C96A,≤ -4.2
16,U4A G25U C54U G92U G124A,-2.53
17,U6A A17G C27U A66U U145A,≤ -4.2
18,U4A C18G A19U U31A U135C,-4.1
19,U4A G11U G50A C76U G84U G94C G126U,≤ -4.2
20,U6A C57U A60U C99U U111G G126U C129G,≤ -4.2
21,U4A A66C A89U C93A C125G G143A,≤ -4.2
22,C5G C87U A98G,-1.31
23,C5U A41U G50A,-2.81
24,C5A G11C G50U G58C C85A,-2.8

row,Variant,polymerase ribozyme fitness (log ratio)
1,C5G G86U,-2.77
2,U4C C51A U82A C96A,≤ -4.2
3,C5G U6A A28U A30U A39C U45C U53A C57A C96G A115U C129U G140C,-3.81
4,U4A A22C C96G A119U C149U,-3.08
5,C5A G42A A97G U101G C103G A110G G140U,-3.6
6,C5U U13G A22U U55A G65U G70U C87A C95U A98G A137C G141A G143C,≤ -4.2
7,C5A G11U A21C C54U C57A C87U,-1.42
8,C5G A52C C76G G81A A91U,≤ -4.2
9,C5U C14U A26U C118G A121U,-3.94
10,C5U G81U C87A A107G U144G,≤ -4.2
11,C5G A52C C85U,-2.14
12,C5A A24U C36U G86A C87A U90G C93A,≤ -4.2
13,U4G C10G A24U C35U U55G G83A C116A,≤ -4.2
14,U6A A142C,-0.741
15,C5G A12G C63U G84C C96U,≤ -4.2
16,C5U A16U C54U C87U G117A A119U,-1.75
17,U4G C54G G80C G92U A115C,≤ -4.2
18,C5U A26U,-1.04
19,U4A U56A,-0.0652
20,U4A A17U A66G C69A G84U A138U,≤ -4.2
21,U4C A24U U61A,-1.7
22,U4G C5U A24U A26U G65U G88U G94U A98G G124U G143U,≤ -4.2
23,U4G C14G A21U A30U C93G C131U G141A,≤ -4.2
24,U4C C76U,-0.762

row,Variant,polymerase ribozyme fitness (log ratio)
1,C5G U55A C85U C116U,-1.06
2,C5A A22C C38A G71A A89C,≤ -4.2
3,C5A C93A,-1.25
4,C5U A22U A98G A122U,0.571
5,C5G A12U C27G A49C C54U U61A C93G C95A A119G U134A A150C,≤ -4.2
6,C5U C14U C38A C57A A66U G67A G84U A110G,≤ -4.2
7,C5G A21U C27U G46A G94C C105G G126A,≤ -4.2
8,C5A C75U U90C A91G A150G,≤ -4.2
9,C5G C85U G88U C105G A119C,≤ -4.2
10,C5G G84A A147C,-0.43
11,A3U U15A A21U U31A C85G,-0.347
12,C5G G124C,-0.88
13,U4A A21U G50A G68A G74A C75G C93U A107C C131G,≤ -4.2
14,C5U A19G A21G A29G C87G C95G,≤ -4.2
15,C5A C35A C38U G74U C87A U148A,≤ -4.2
16,C5G A21U G59A,-0.0281
17,U4A C35A U53C C96G A122U,≤ -4.2
18,C5A C14G,-0.996
19,C5G G59A,-0.858
20,U4C A47C G84A G88A G92U A142G,≤ -4.2
21,C5A A12U U13A U15A G83U C95U A107U C108U,≤ -4.2
22,U4C A19C C38G C93U C114G,≤ -4.2
23,U6A A12U G50A C149A,≤ -4.2
24,C5A C10G C85A C118G,-3.84

row,Variant,polymerase ribozyme fitness (log ratio)
1,U4C A147C,-0.0283
2,U6A A64U A66G G84A,≤ -4.2
3,C5A A29U A52C G74A A97G,≤ -4.2
4,U6A C118G,-1.66
5,C5G C10U C57U C95U,-2.04
6,C5G G50C A122U C125U,-3.46
7,U4G C36A U55A U61A C76U C87U,≤ -4.2
8,C5A A21U U77A U82G C96G U104G C105A C118U U139C,≤ -4.2
9,U4G G141U,0.552
10,U6A C85U C95A A120G,-1.78
11,C5G C18G G48U U53A C103G,-3.62
12,C5G A17U G74A A91G G141U,≤ -4.2
13,C5G U53A C54G U77G U82C G92C C129G U144C,≤ -4.2
14,U4A G94U U102C,-3.03
15,C5G G81A A98G A121U G143C,-2.76
16,U4A A12C G50A G84U G141U,-3.8
17,U4G G50C C118U,≤ -4.2
18,U4G G67A C85U C116A A122U A150U G152C,≤ -4.2
19,C5U U45A,-2.1
20,U6A C57U A98G,-0.654
21,U6A A22U C27A C54A C57A C76U U78C C87U G128C A137G G141C,≤ -4.2
22,C5U U139G,0.221
23,C5G G48A U61A C99G C132G G133U A142C,≤ -4.2
24,U6A C35U C95G G100A,≤ -4.2

row,Variant,polymerase ribozyme fitness (log ratio)
1,C5U G62A U90G A138G A142U,≤ -4.2
2,U4C U53A A121C U144C,-1.34
3,U6A A20G U45A,-3.51
4,C5A G50U G84A U135A U139A G141C,≤ -4.2
5,U6A C10G C75G U78C C96G A97G U102G,≤ -4.2
6,C5A A26U G50A C51U A106C U139G,≤ -4.2
7,U4C C18U U53A A73G U134C,-2.31
8,U6A C75U C93G C131G,≤ -4.2
9,U6A A26G A64C C87U A89C U146C,≤ -4.2
10,C5A A30U U77A G92U,≤ -4.2
11,U6A A12U U15C A137C,-3.12
12,U4A A41C U61A C63G A64C C72A C96G,≤ -4.2
13,C5U C35U U77G C85G A89U A110C U144G,≤ -4.2
14,C5G G94C A122C,-1.03
15,C5G C18G A41C G152U,-3.98
16,C5G U45C,-1.55
17,C5U C18U C85A,-0.0024
18,U4G U6G A20C A24U A30C C95U A119C U148A,≤ -4.2
19,U4A U7A G42C G48C A66C G67A C72U U101G,≤ -4.2
20,U6A A22C A39U U44A G70A C99A,≤ -4.2
21,U4A G84U C85U G117U U145C,-2.29
22,U4A C93U,-1.34
23,A3U U144G,0.419
24,U4G C54G C96G A137G,-4.19

row,Variant,polymerase ribozyme fitness (log ratio)
1,U4G A73G G92U A107U A122U,-3.96
2,C5U U6A C57U G67C G71A U82G C87G U104A U139G A142G,≤ -4.2
3,U4A U6A A40U G46C C96A C118A,-3.94
4,C5A G59U C69U G94U A98G U102G U135C,≤ -4.2
5,C5U A17C C54A C85A C93U C105G A113G G141A,≤ -4.2
6,U4G C57G,-0.334
7,U4C C32G C103G,≤ -4.2
8,C5U A22U C69A G88U,≤ -4.2
9,C5G C76U G84U A113U A122U,-4
10,C5A A30C U82G U102C C131U,≤ -4.2
11,U4A U6G G67C U82A U130G G143C,≤ -4.2
12,U4C C87A A89U C129G,≤ -4.2
13,C5G G84A C96A,-1.4
14,C5A A24C G80C C149G,≤ -4.2
15,C5A C85U C95G,-1.93
16,U4G C87A A98G U130G,≤ -4.2
17,C5G C96G G141U,-0.469
18,C5G A17G C32U A49C C54U U55G G88C C96A,≤ -4.2
19,U4C U55A G86U,-2.08
20,U4C A52G G59U U145G,-1.5
21,C5U C51A G117C,-2.16
22,C5G G50A G59C C76A G83A C103G C114A,≤ -4.2
23,U4C C8A G59A,-4.18
24,U4G U61A G88A,≤ -4.2

row,Variant,polymerase ribozyme fitness (log ratio)
1,U6A C108U U134C,-3.33
2,U4G G25U G48U U55G G84C A115C U134C,≤ -4.2
3,U6A A22U,0.00924
4,U4G A22U U148C,-3.08
5,U4G A23C A30U A52C U56A,≤ -4.2
6,A3U U33A C43U G84A C85A G140C U146C,≤ -4.2
7,C5A C57U G86A A120G G141C,-2.54
8,C5A C57U C95U C103G,-2.24
9,C5A U6G A28U A52C G84C A110G,≤ -4.2
10,U4G C85U U134G U145G,-2.85
11,U4C C75A C85G C99G U145G A147U,≤ -4.2
12,U4G C38U G86C C105G A138C,≤ -4.2
13,A3U U135G,-4.19
14,C5A A23C C85U G88A C105U A120G,≤ -4.2
15,U4C A23C C43U G46A G84A C105G C118U A119C,≤ -4.2
16,C5A A12G C35A G42A C96U,≤ -4.2
17,C5A C14U C32A U33A A47U U82G G92U G126C U135G,≤ -4.2
18,U4G G46A,-0.673
19,C5A A29C G50U C51U G88A U90C,≤ -4.2
20,U4A C27U C38U C51U A106G U109A,-3.72
21,C5G A20C C32A G50C G124C G141C,≤ -4.2
22,U4C A20U A64C C85G U101C C118U,≤ -4.2
23,C5G C32U U53G A73U C85U,≤ -4.2
